Reference: publication PMC11211662, “A novel alcohol dehydrogenase in the hyperthermophilic crenarchaeon Hyperthermus butylicus” (mLife, 2024)

How the values were obtained:
Assay in all cases: purified protein
purified protein [1] = substrate: CC(C)O; details: oxidation, 0.4 mM NADP+, 100 mM EPPS pH 9.0, 80 °C, anaerobic
purified protein [2] = substrate: CCO; details: oxidation, 0.4 mM NADP+, 100 mM EPPS pH 9.0, 80 °C, anaerobic
purified protein [3] = substrate: CC(C)=O; assay type: biochemical, Hyperthermus butylicus; details: reduction, 0.2 mM NADPH, 100 mM PIPES pH 6.0, 80 °C, anaerobic, pH 6.0
purified protein [4] = substrate: CC=O; assay type: biochemical, Hyperthermus butylicus; details: reduction, 0.2 mM NADPH, 100 mM PIPES pH 6.0, 80 °C, anaerobic, pH 6.0
purified protein [5] = substrate: CCC=O; assay type: biochemical, Hyperthermus butylicus; details: reduction, 0.2 mM NADPH, 100 mM PIPES pH 6.0, 80 °C, anaerobic, pH 6.0
purified protein [6] = substrate: CCCC=O; assay type: biochemical, Hyperthermus butylicus; details: reduction, 0.2 mM NADPH, 100 mM PIPES pH 6.0, 80 °C, anaerobic, pH 6.0
purified protein [7] = substrate: CCCCO; assay type: biochemical, Hyperthermus butylicus; details: oxidation, 0.4 mM NADP+, 100 mM EPPS pH 9.0, 80 °C, anaerobic, pH 9.0
purified protein [8] = substrate: CCCO; assay type: biochemical, Hyperthermus butylicus; details: oxidation, 0.4 mM NADP+, 100 mM EPPS pH 9.0, 80 °C, anaerobic, pH 9.0

B1: HbADH2 (Hyperthermus butylicus DSM 5456) (protein)
chain: MLRRLQSSLRDYVRKYIVRLNCNAGGTTCKPSSTECQRFLAEPNLPQALLLAGYRLLDCTCSSGGGVSIELVGTSGDTIPARLCLDCGSIFPALTLKAQLPLSTSIPPYRGPIQEAMLKTVETIAQFCAHRKGLPLLLDTVLAEPARMCKVKLGCRPIHISSFEKADLGTVSPRIKLPTILSWITLRLRKSIEIEAPWLCVESNNGALQLVCLSETCRFEVTHCGSVRLIHGKAIALPSSTRCSPALLHLVYLYGTLYKSIDDVNVKPCIWSMTGLAILGAWYSTGENGESMMLLVWNPLKKSKLHEIVFERHRIVEAKLTSPATWLEEQLIPQYNRLRIPLPPHGARLVYVRLRKLPRLLSKNANG
notes: native protein purified anaerobically from H. butylicus cell-free extract (DEAE-Sepharose, hydroxyapatite, phenyl-Sepharose); untagged; 367 residues deduced, 40,694 Da calculated; gene assigned by mass spectrometry of the gel band, not by recombinant expression
Km (purified protein [1]): 3740 ± 460 µM
kcat (purified protein [1]): 3.47 s⁻¹
kcat/Km (purified protein [1]): 928 M⁻¹ s⁻¹
Km (purified protein [2]): 4360 ± 420 µM
kcat (purified protein [2]): 4 s⁻¹
kcat/Km (purified protein [2]): 915 M⁻¹ s⁻¹
Km (purified protein [3]): 680 ± 40 µM
kcat (purified protein [3]): 3.84 ± 0.06 s⁻¹
kcat/Km (purified protein [3]): 8070 ± 1520 M⁻¹ s⁻¹
Km (purified protein [4]): 1270 ± 180 µM
kcat (purified protein [4]): 7 ± 0.31 s⁻¹
kcat/Km (purified protein [4]): 5510 ± 1720 M⁻¹ s⁻¹
Km (purified protein [5]): 1550 ± 200 µM
kcat (purified protein [5]): 1.79 ± 0.07 s⁻¹
kcat/Km (purified protein [5]): 1160 ± 338 M⁻¹ s⁻¹
Km (purified protein [6]): 590 ± 70 µM
kcat (purified protein [6]): 8 ± 0.22 s⁻¹
kcat/Km (purified protein [6]): 13600 ± 3140 M⁻¹ s⁻¹
Km (purified protein [7]): 2440 ± 300 µM
kcat (purified protein [7]): 6.84 ± 0.24 s⁻¹
kcat/Km (purified protein [7]): 2800 ± 814 M⁻¹ s⁻¹
Km (purified protein [8]): 4690 ± 410 µM
kcat (purified protein [8]): 4.4 ± 0.12 s⁻¹
kcat/Km (purified protein [8]): 938 ± 293 M⁻¹ s⁻¹
